Test results as given in patent US20090098076A1, “Method For the Production of a Keratin-Binding Effector Molecule” (BASF SE, priority 2005, published 2009).

How the values were obtained:
[1] = biological target: human skin keratin (human); experiment: quantitative skin binding test (human keratinocytes in microtiter plates), anti-His antibody, TMB; after 10% strength SDS treatment; conditions: scale: absorption at 405 nm, standardized to the surface
[2] = biological target: human hair keratin (human hair, cut into 5 mm sections) (human); experiment: quantitative hair binding test, anti-polyHis peroxidase conjugate, TMB; after 10% strength SDS treatment; conditions: scale: absorption at 405 nm, standardized to the surface
[3] = tested on: hair (human); experiment: Quantitative binding to hair (Example 15)
Procedure: (§1) In order to investigate the binding strength of the KBD-D (SEQ ID No.:168) to skin and hair compared to the KBD-B (SEQ ID No.:166), a quantitative test was carried out. In this test firstly hair was incubated with KBD-B or KBD-D and excess KBD-D or -D was washed off. An antibody-peroxidase conjugate was then coupled via the His/tag of the KBD-B or -D. Nonbound antibody-peroxidase conjugate was washed off again. The bound antibody-peroxidase conjugate can convert a colorless substrate (TMB) into a colored product, which was measured photometrically at 405 nm. The intensity of the absorption indicates the amount of bound KBD-B or -D.
In order to characterize the hair binding of the KBD-D compared to the KBD-B, the following binding assay was carried out:
5 mg of hair (human) were cut into sections 5 mm in length and transferred to Eppendorf vessels (protein low-bind). • addition of 1 ml of ethanol for degreasing • centrifugation, removal of ethanol and washing of the hair with H2O • centrifugation, removal of the supernatant • addition of the keratin-binding domains to be tested (coupled to tag—e.g. His6, HA etc.) in 1 ml of PBS/0.05% Tween 20; incubation for 2 h at room temperature with gentle swinging movements • centrifugation, removal of the supernatant • 3× washing with PBS/0.05% Tween 20 • incubation with 1 ml monoclonal mouse anti-tag-(His6 or HA) antibodies with peroxidase conjugate (1:2000 in PBS/0.05% Tween 20) [Monoclonal AntipolyHistidine Peroxidase Conjugate, produced in mouse, lyophilized powder, Sigma] for 2-4 h at room temperature, gentle swinging movement • 3× washing with PBS/0.05% Tween 20 • addition of peroxidase substrate (1 ml/Eppendorf vessel) • allow reaction to proceed until blue coloration (90 seconds). • stop the reaction with 100 μl of 2 M H2SO4.
The absorption was measured at 405 nm
(§2) Peroxidase Substrate (Prepared Shortly Beforehand):
0.1 ml TMB solution (42 mM TMB in DMSO) +10 ml substrate buffer (0.1 M sodium acetate pH 4.9) +14.7 μl H2O2 3% strength BSA=bovine serum albumin PBS=phosphate buffered salt solution Tween 20=polyoxyethylene sorbitan monolaureate, n about 20 TMB=3,5,3′,5′-tetramethylbenzidine

[4] = biological target: human skin keratin (human); experiment: quantitative skin binding test, loss relative to untreated skin after 10% strength SDS treatment
[5] = tested on: skin keratin; experiment: Qualitative binding to skin (adhesive tape keratin layer, Examples 8 and 14); conditions: transparent adhesive tape with human skin keratin layer; negative control buffer only
Procedure: A visual qualitative test was developed in order to examine whether KBD binds to skin.
Blocking solution: Western Blocking Reagent 1921673 Roche (10× solution) diluted in TBS.
TBS: 20 mM Tris; 150 mM NaCl pH 7.5
The first step is the transfer of the outer keratin layer of the skin to a stable support. For this purpose, a transparent adhesive tape is firmly applied to depilated human skin and removed again. The test can be carried out directly on the transparent adhesive strip, or the adhering keratin layer can be transferred to a glass slide through renewed adhesion.
A visual qualitative test was used in order to examine whether the KBD-D (SEQ ID No.: 168) binds to skin.
Blocking solution: Western Blocking Reagent 1921673 Roche (10× solution) diluted in TBS
A blue colored precipitate, being a reaction of the antipolyhistidine-AP conjugate interacting with the KBD-D, was visible on the transparent adhesive tape treated with KBD-D. As negative control, a transparent adhesive tape was treated only with buffer. No significant blue coloration could be seen here.

[6] = biological target: human hair keratin (human hair, cut into 5 mm sections) (human); experiment: quantitative hair binding test, loss relative to untreated hair after 10% strength SDS treatment
[7] = biological target: human skin keratin (human); experiment: quantitative skin binding test (human keratinocytes in microtiter plates), anti-His antibody, TMB; conditions: scale: absorption at 405 nm, standardized to the surface
[8] = tested on: human keratinocytes; experiment: Quantitative binding to skin (Example 15)
Procedure: as §1
The test for binding to skin was carried out with human keratinocytes in microtiter plates as follows. • 2× washing with PBS/0.05% Tween 20 • addition of 1 ml of 1% BSA in PBS and incubation for 1 h at room temperature, gentle swinging movements (900 rpm). • removal of the supernatant • addition of 100 μg of KBD in PBS with 0.03% Tween 20; incubation for 2 h at room temperature and gentle swinging movements (900 rpm). • removal of the supernatant • 3× washing with PBS/0.05% Tween 20 • incubation with 1 ml of monoclonal mouse anti-tag-His6 antibodies for 2-4 h at room temperature, gentle swinging movement (900 rpm) • 3× washing with PBS/0.05% Tween 20 • addition of peroxidase substrate (1 ml/Eppendorf vessels composition see below) reaction until a blue coloration (about 90 seconds). • reaction stopped with 100 μl of 2 M H2SO4. • the absorption was measured at 405 nm.
as §2
0.1 ml TMB solution (42 mM TMB in DMSO) +10 ml substrate buffer (0.1 M sodium acetate pH 4.9) +14.7 μl H2O2 3% strength

[9] = biological target: human hair keratin (human hair, cut into 5 mm sections) (human); experiment: quantitative hair binding test, anti-polyHis peroxidase conjugate, TMB; conditions: scale: absorption at 405 nm, standardized to the surface
[10] = values standardized to the surface, after 10% strength SDS treatment
[11] = values standardized to the surface, no SDS treatment

- Absorption at 405 nm [1]: 3.15
- Absorption at 405 nm [2]: 0.62
- Relative absorption loss after 10% strength SDS treatment in %, hair ([3]; relative to untreated hair): 30%
- binding to hair (in words) ([3]; summary of Tab. 10): can bind to hair
- Absorption at 405 nm, binding to hair after 10% strength SDS treatment [3, 10]: 0.62
- Absorption at 405 nm, binding to hair [3, 11]: 0.88
- Relative absorption loss after 10% strength SDS treatment in % [4]: 15%
- binding to skin keratin (blue colored precipitate) [5]: has bound to the skin keratin
- Relative absorption loss after 10% strength SDS treatment in % [6]: 30%
- Absorption at 405 nm [7]: 3.69
- Relative absorption loss after 10% strength SDS treatment in %, skin ([8]; relative to untreated skin): 15%
- binding to skin compared with hair (in words) ([8]; summary of Tab. 10): more strongly to skin
- Absorption at 405 nm, binding to skin after 10% strength SDS treatment [8, 10]: 3.15
- Absorption at 405 nm, binding to skin [8, 11]: 3.69
- influence of washing with SDS solution on binding ([8]; washing with an up to 10% strength SDS solution, in contrast to KBD-B): only more weakly influenced
- Absorption at 405 nm [9]: 0.88
B1: KBD-D (keratin-binding domain of human plakophilin) with N-terminal histidine anchor (SEQ ID No.: 168) (protein)
chain: MRGSHHHHHHGSACELGTMNHSPLKTALAYECFQDQDNSTLALPSDQKMKTGTSGRQRVQEQVMMTVKRQKSKSSQSSTLSHSNRGSMYDGLADNYNYGTTSRSSYYSKFQAGNGSWGYPIYNGTLKREPDNRRFSSYSQMENWSRHYPRGSCNTTGAGSDICFMQKIKASRSEPDLYCDPRGTLRKGTLGSKGQKTTQNRYSFYSTCSGQKAIKKCPVRPPSCASKQDPVYIPPISCNKDLSFGHSRASSKICSEDIECSGLTIPKAVQYLSSQDEKYQAIGAYYIQHTCFQDESAKQQVYQLGGICKLVDLLRSPNQNVQQAAAGALRNLVFRSTTNKLETRRQNGIREAVSLLRRTGNAEIQKQLTGLLWNLSSTDELKEELIADALPVLADRVIIPFSGWCDGNSNMSREVVDPEVFFNATGCLRNLSSADAGRQTMRNYSGLIDSLMAYVQNCVAASRCDDKSVENCMCVLHNLSYRLDAEVPTRYRQLEYNARNAYTEKSSTGCFSNKSDKMMNNNYDCPLPEEETNPKGSGWLYHSDAIRTYLNLMGKSKKDATLEACAGALQNLTASKGLMSSGMSQLIGLKEKGLPQIARLLQSGNSDVVRSGASLLSNMSRHPLLHRVMGNQVFPEVTRLLTSHTGNTSNSEDILSSACYTVRNLMASQPQLAKQYFSSSMLNNIINLCRSSASPKAAEAARLLLSDMWSSKELQGVLRQQGFDRNMLGTLAGANSLRNFTSRF
